Experimental data as given in patent US20150072922A1, “RNASE 7 ANTIMICROBIAL PEPTIDES” (THE RESEARCH INSTITUTE AT NATIONWIDE CHILDREN'S HOSPITAL, priority 2012, published 2015).
“Also recorded” adds a separate entry of the source.

B1: RNase7: recombinant full-length human Ribonuclease 7, amino acids 1-128 (SEQ ID NO: 1), N-terminal His tag (protein, listed as Homo sapiens)
chain: KPKGMTSSQWFKIQHMQPSPQACNSAMKNINKHTKRCKDLNTFLHEPFSSVAATCQTPKIACKNGDKNCHQSHGPVSLTMCKLTSGKYPNCRYKEKRQNKSYVVACKPPQKKDSQQFHLVPVHLDRVL
modifications: N-terminal His tag
B2: F:1-97: recombinant N-terminal RNase 7 fragment, amino acids 1 to 97 (SEQ ID NO: 5), N-terminal His tag (protein, listed as Homo sapiens)
chain: KPKGMTSSQWFKIQHMQPSPQACNSAMKNINKHTKRCKDLNTFLHEPFSSVAATCQTPKIACKNGDKNCHQSHGPVSLTMCKLTSGKYPNCRYKEKR
modifications: N-terminal His tag

How the values were obtained:
[1] = test system: human erythocytes; type: cell-based
Description: Hemolytic assay: To determine the hemolytic activity of RNase 7, washed human erythocytes are incubated for 1 hour at 37° C. with a serial two-fold dilution of recombinant RNase 7 and its fragments in pyrogen free saline. After incubation, centrifugation to remove intact erythrocytes and a 10-fold dilution of supernatant, the concentration of released hemoglobin is measured in a micotitre plate reader at 405 nm. (Biochem J. Feb. 15 2008; 410(1):113-122) The peptide concentration that results in 50% hemolysis of erythrocytes will be designated the HC50.

[2] = test system: E. Coli, P. aeruginosa and E. faecalis; experiment: Atomic Force Microscopy of bacterial morphology; type: cell-based; conditions: twice the MIC, 1×10^9 cfu, FIG. 13
Description: (See FIG. 13) 1×10^9 cfu of E. Coli, P. aeruginosa and E. faecalis were incubated with twice the MIC of RNase 7. Ultra-pure water was used as a negative control. AFM imaging was performed with the Multimode AFM instrument (Veeco, Santa Barbara, Calif.) at Ohio State.

[3] = test system: uropathogenic E. coli; experiment: RNase7 antibacterial activity, MIC on strains isolated from positive urine cultures; type: cell-based, Escherichia coli; conditions: uropathogenic E. coli isolated from urine cultures (N=3)
Text: (§1) Laboratory bacterial strains from the American Type Culture Collection (ATCC, Manassas, Va.) and strains isolated from positive urine cultures were obtained from the Microbiology Laboratory at Nationwide Children's Hospital.

[4] = test system: ATCC non-uropathogenic strains; experiment: RNase7 antibacterial activity, MIC on laboratory strains; type: cell-based; conditions: ATCC non-uropathogenic strains (N=3 distinct strains)
Text: as §1

[5] = test system: Human primary bladder urothelial cells and renal medullary epithelial cells; experiment: Cytotoxic assay; type: cell-based
Description: Cytotoxic assay: The urothelial cells that line the bladder and distal nephron epithelial cells are the primary areas of RNase7 protein expression in the kidney and urinary tract. Thus, the cytotoxicity of variant peptides on these epithelia is determined. Human primary bladder urothelial cells (Catalog #4320, ScienCell Research Laboratories, Carlsbad, Calif.) and renal medullary epithelial cells (Catalog # FC-0018, Lifeline Cell Technology, Frederick, Md.) are cultured according to the manufacture's instructions. Cytotoxicity is measured with the Live/Dead Viability/Cytotoxicity Kit for mammalian cells (Catalog number # L3224, Invitrogen/Molecular Probes, Eugene Oreg.) according to the manufacturer's fluorescence microplate protocol and expressed as the percentage of viable cells after treatment with serial two-fold dilutions of RNase 7 and its deletion fragments incubated for 1 hour at 37° C. The results of the cytotoxic assay are reported as the EC50 or the concentration that results in 50% cell death.

[6] = test system: Staphylococcus saprophyticus; experiment: SYTOX Green bacterial cell death / membrane permeabilization assay; type: cell-based; conditions: 3 hours, FIG. 2, compared to full-length
Description: (§2) Assays of the permeabilization of bacterial membrane were performed with SYTOX green nucleic acid stain (Invitrogen™). The overnight cultures of bacteria were centrifuged at 5000 rpm for 5 min, the pellets were then washed with water and resuspended in water with an OD=0.5. 90 μl of each bacteria were then incubated with 10 μl of peptides with different concentrations for 3 hours at 37° C. in a 96-well plate. 100 μl of 2 μM SYTOX Green (Invitrogen™) were then added to each well and incubated in dark for 15 min. SYTOX green penetrates cells with compromised membranes not the membranes of live cells. The increase of fluorescence was measured using […] filters for excitation and emission wavelengths, respectively. Bacteria alone and bacteria treated with 70% ethanol were used as controls and the fluorescence from each was recorded as Fmin and Fmax. The percentage of cell death at each concentration for each fragment was calculated as below: death %=(F−Fmin)/(Finax−Fmin)*100%
(§3) To confirm the accuracy of our MIC/MBC data, cell death assays using SYTOX Green (Invitrogen), which selectivity labels nucleic acids of cells with compromised membranes of dead/dying cells were performed. Overnight cultures of bacteria were centrifuged at 5000 rpm for 5 minutes. Pellets were then washed with PBS (pH 7.4) and resuspended in PBS to an OD600 of 0.5 for Escherichia coli (UTI89) and OD600 of 0.8 for Staphylococcus saprophyticus. Per manufacturerer's instructions, 90 μl of each bacteria strain were incubated with 100 μl of 2 uM SYTOX Green for 15 minutes. Ten microliters of peptides at various concentrations were added for 3 hours at 37° C. in a 96-well plate. Compromised bacterial membranes of dead/dying cells will be labeled while lives cells are not labeled as noted by Invitrogen. Fluorescence was measured using 485 and 520-nm filters for excitation and emission wavelengths, respectively. Untreated bacteria were used as a 100% live control, and fluorescence was noted as Fmin. To elicit complete killing, bacteria were treated with 70% ethanol for 1 hour. This experimental group's fluorescence was noted as Fmax. The percentage of cell death at each concentration for each fragment was calculated as (Ffragment−Fmin)/(Fmax−Fmin)×100%.

[7] = test system: Escherichia coli (UTI89); experiment: as above; type: cell-based; conditions: 3 hours, FIG. 1, compared to full-length
Description: as §2, §3

| Molecule | hemolytic properties [1] | morphological effect on bacteria (AFM) [2] | mean inhibitory concentration (MIC) [3] [µM] | mean inhibitory concentration (MIC) [4] [µM] | cytotoxic properties [5] | membrane permeabilization and death, S. saprophyticus (in words) [6] | membrane permeabilization and death, E. coli (in words) [7] |
| --- | --- | --- | --- | --- | --- | --- | --- |
| B1 | no cytoxic or hemolytic properties | direct bacteriocidal effects on multiple microbes | 2.5 | 1.3 | no cytoxic or hemolytic properties |  |  |
| B2 |  |  |  |  |  | increased permeability; also recorded: improved activity compared to full-length; also recorded: increased membrane permeabilization and subsequent death against both strains | increased permeability; also recorded: improved activity compared to the full-length protein; also recorded: increased membrane permeabilization and subsequent death against both strains |
